Assay results from US20050208041A1 (Bristol-Myers Squibb, published 2005).
Like-named read-outs stand apart in the source and are kept apart here.

B1: M3K1 (antibody, V domains shown)
VH: EVQLLESGGGLVQPGGSLRLSCAFSGFTLSTSGMGIGWVRQAPGKGLEWVAHIWWDDDKYYNPSLKSRFTISRDTSKNTVYLQMNSLRAEDTAVYYCARNYYPYDAWFDYWGQGTLVTVS
VL: DIQMTQSPSSLSASVGDRVTITCSASSSINSNHLHWYQQKPGKAPKLLIYRTSILASGVPSRFSGSGSGTSFTLTISSLQPEDFATYYCQQGSNIPFTFGQGTKVEIKR
notes: also called heavy chain M3 with light chain K1
B2: H3K1 (IgG4) (antibody, V domains shown)
VH: EVQLVESGGGLVQPGGSLRLSCAFSGFTLSTSGMGIGWVRQAPGKGLEWVAHIWWDDDKYYNPSLKSRFTISRDTSKNTVYLQMNSLRAEDTAVYYCARNYYPYDAWFDYWGQGTLVTVS
VL: DIQMTQSPSSLSASVGDRVTITCSASSSINSNHLHWYQQKPGKAPKLLIYRTSILASGVPSRFSGSGSGTSFTLTISSLQPEDFATYYCQQGSNIPFTFGQGTKVEIKR
notes: also called H3K1 standard; humanized anti-IFNAR-1 mAb H3K1
B3: murine monoclonal antibody 64G12 (antibody, V domains shown)
VH: QVTLKESGPGILKPSQTLSLTCSFSGFSLSTSGMGIGWIRQPSGKGLEWLAHIWWDDDKYYNPSLKSQLTISRDTSTNQVFLNITSVDTVDTATYYCGRNYYPYDAWFDYWGQGTLVTVS
VL: EIVLTQSPTTMAASPGEKITITCSASSSINSNHLHWYQQKPGFSPKVLIYRTSILASGVPTRFSGSGSGTSYSLTIGTMEAEDVATYYCQQGSNIPFTFGSGTELEIKR
notes: Mouse IgG1, kappa light chain; also called 64G12 (mouse IgG1); murine anti-IFNAR-1 mAb 64G12

How the values were obtained:
[1] = target: T1, purified recombinant IFNAR-1 extracellular fragment (human, UniProt P17181 28-436); test: Biacore, maximal association on IFNAR-1 relative to M3K1
T1 construct: extracellular domain; also called soluble IFNAR-1; soluble IFNAR
T1 sequence (looked up): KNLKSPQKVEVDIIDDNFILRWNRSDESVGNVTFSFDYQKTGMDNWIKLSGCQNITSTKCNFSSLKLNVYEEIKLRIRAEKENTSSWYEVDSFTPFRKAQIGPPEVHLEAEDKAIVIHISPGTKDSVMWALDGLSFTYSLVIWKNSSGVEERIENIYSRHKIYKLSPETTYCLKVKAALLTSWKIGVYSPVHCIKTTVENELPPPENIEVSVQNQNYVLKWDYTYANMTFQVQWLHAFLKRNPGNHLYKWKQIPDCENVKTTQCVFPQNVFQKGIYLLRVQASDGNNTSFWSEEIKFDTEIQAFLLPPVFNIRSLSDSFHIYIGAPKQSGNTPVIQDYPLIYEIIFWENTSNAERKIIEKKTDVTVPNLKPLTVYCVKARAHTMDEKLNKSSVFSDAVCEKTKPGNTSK
Source text: (§1) Pools 4 and 11 were selected for further study and the individual antibodies in each pool were produced and expressed separately. The sequences of these individual antibodies were as shown in SEQ ID NO:12 of FIG. 1F and SEQ ID NO: 13 of FIG. 1G. The data is presented as maximal association relative to M3K1. […]

[2] = target: T1, purified recombinant IFNAR-1 …; test: Biacore, antibody captured on anti-human IgG Fc, soluble IFNAR 25-400 nM, flow cell 2-1 low density capture; Flow cell 2-1, low density capture
Source text: (§2) The binding affinity of M3K1 was compared to that of H3K1.

[3] = target: T1, purified recombinant IFNAR-1 …; test: Biacore, antibody captured on anti-human IgG Fc, soluble IFNAR-1 25-400 nM, flow cell 4-3 higher density capture
Source text: as §2

[4] = target: T1, purified recombinant IFNAR-1 …; test: Biacore, antibody on immobilized soluble IFNAR-1, maximal response, mean of four
Experimental: Additional combination variants heavy chain DI M3-B and light chain DI K1-C were also made. These combination variants were also tested for binding to IFNAR-1. […] Binding analysis was done by Biacore, with the antibody bound to immobilized soluble IFNAR-1. Maximal response was determined at two concentrations and values shown are mean of four determinations.

[5] = target: T1, purified recombinant IFNAR-1 …; test: Biacore, maximal association on IFNAR-1 relative to M3K1; remark: listed apart in the source
Source text: as §1

[6] = target: T1, purified recombinant IFNAR-1 …; test: Biacore, antibody captured on anti-human IgG Fc, soluble IFNAR-1 25-400 nM, flow cell 2-1 low density capture
Source text: as §2

[7] = target: T1, purified recombinant IFNAR-1 …; test: Biacore, antibody captured on anti-human IgG Fc, soluble IFNAR 25-400 nM, flow cell 2-1 low density capture
[8] = target: T1, purified recombinant IFNAR-1 …; test: Biacore, antibody captured on anti-human IgG Fc, soluble IFNAR 25-400 nM, flow cell 4-3 higher density capture
[9] = target: T1, purified recombinant IFNAR-1 …; test: Biacore, response on IFNAR-1 (flow cell 2) divided by response on anti-human IgG Fc (flow cell 4)
[10] = target: T1, purified recombinant IFNAR-1 …; test: Biacore, 200 nM antibody on immobilized soluble IFNAR-1
IFNAR-1 on human cells [11] = target: T2, IFNAR-1 on human cells (human, UniProt P17181 28-557); test: cell-based or functional assay
T2 sequence (looked up): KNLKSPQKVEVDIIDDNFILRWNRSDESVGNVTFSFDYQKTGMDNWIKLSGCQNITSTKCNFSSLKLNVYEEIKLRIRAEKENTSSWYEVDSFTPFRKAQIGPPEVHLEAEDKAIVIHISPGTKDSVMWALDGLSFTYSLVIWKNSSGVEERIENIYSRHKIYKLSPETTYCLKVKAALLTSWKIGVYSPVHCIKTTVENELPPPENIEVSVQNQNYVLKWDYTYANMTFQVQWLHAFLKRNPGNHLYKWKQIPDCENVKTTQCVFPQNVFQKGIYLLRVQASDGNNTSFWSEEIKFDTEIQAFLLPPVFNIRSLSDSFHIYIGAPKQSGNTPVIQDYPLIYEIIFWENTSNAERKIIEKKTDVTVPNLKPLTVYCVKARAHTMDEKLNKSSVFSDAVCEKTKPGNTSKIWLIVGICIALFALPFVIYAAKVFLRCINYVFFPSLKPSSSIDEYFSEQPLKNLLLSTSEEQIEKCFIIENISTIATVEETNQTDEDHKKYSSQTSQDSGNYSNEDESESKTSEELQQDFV

[12] = target: T1, purified recombinant IFNAR-1 …; test: Receptor Binding (Biacore), purified recombinant receptor
[13] = target: T1, purified recombinant IFNAR-1 …; test: Biacore, IFNAR-1 extracellular fragment coupled to CM5 chip, antibody 1.75-80 nM
Experimental: Antibodies from clones 64G12, H2K6, H2K1, H3K6, and H3K1 were assayed by Biacore analysis (Biacore AB, Uppsala, Sweden) to determine binding kinetics. Purified recombinant IFNAR-1 extracellular fragment was coupled to the CM5 sensor chip @ 600 RU. Binding was measured by adding antibody at concentrations from 1.75-80 nM at a flow rate of 20 ul/min. The binding curves were fit to a Langmuir binding model using BIAevaluation software (Biacore AB, Uppsala, Sweden).

IFNAR-1 on human cells [14] = target: T2, IFNAR-1 on human cells; test: Scatchard analysis, 125I-labelled antibody on BALL-1 cells
Experimental: BALL-1 cells, which express IFNAR-1 and IFNAR-2, were used to assess the binding of anti-IFNAR-1 humanized antibodies to cells by Scatchard analysis. The cells were grown in RPMI containing 10% FCS and washed twice with Hanks Balanced Salt Solution (HBSS) at 4 degrees C. […] Millipore plates (MAFB NOB) were coated with 1% nonfat dry milk in water and stored a 4° C. overnight. The plates were washed with binding buffer and 25 ul of unlabeled antibody (1000-fold excess) in TBS binding buffer was added to control wells in a Millipore 96 well glass fiber filter plate (non-specific binding NSB). Twenty-five microliters of buffer alone was added to the maximum binding control well (total binding). Twenty-five microliters of ¹²⁵I-anti-IFNAR-1 antibody and 25 ul of BALL-I cell suspension (4×10⁷ cells/ml) in TBS binding buffer were added. The plates were incubated for 2 hours at 200 RPM on a shaker at 4° C. At the completion of the incubation the Millipore plates were washed twice with 0.2 ml of cold TBS binding buffer containing a final concentration of 0.5 M NaCl. The filters were removed and counted in a gamma counter. Evaluation of equilibrium binding was performed using single site binding parameters with the Prism software (San Diego, Calif.).
Therefore in either a protein-based or cell-based assay, the binding affinity of the antibodies are in the low nM range.

[15] = target: T1, purified recombinant IFNAR-1 …; test: Receptor Binding (Biacore), purified recombinant receptor; Biacore, purified recombinant receptor (not BALL-1 cells)
IFNAR-1 on human cells [16] = target: T2, IFNAR-1 on human cells; test: cell-based or functional assay; remark: listed apart in the source

Row | Binder | % activity relative to M3K1 [1] | Kd [3] | koff [3] | kon [3] | % response relative to H3K1 [4] | % activity relative to M3K1 [5] | Kd [6] | koff [6] | kon [6] | % activity relative to H3K1 [9] | Fc2/Fc4 [9] | Cell Proliferation (Daudi) IC50, cells cultured with interferon α2b (IFNAR-1 on human cells [11]) | ISRE-RG Reporter (U937) IC50, interferon α2b (IFNAR-1 on human cells [11]) | Kd [13] | Kd (IFNAR-1 on human cells [14]) | further results
1 | B1 | 100% | 7.99 nM | 4.39e-05 s⁻¹ | 5490 M⁻¹ s⁻¹ | 97% | 100% | 7.09 nM | 3.79e-05 s⁻¹ | 5340 M⁻¹ s⁻¹ | 140% | 0.42 | – | – | – | – | kon [2]: 5340 M⁻¹ s⁻¹; Kd [7]: 7.09 nM; koff [7]: 3.79e-05 s⁻¹; Kd [8]: 7.99 nM; koff [8]: 4.39e-05 s⁻¹; kon [8]: 5490 M⁻¹ s⁻¹
2 | B2 | 115% | 6.43 nM | 4.81e-05 s⁻¹ | 7480 M⁻¹ s⁻¹ | 100% | 138% | 6.26 nM | 5.04e-05 s⁻¹ | 8060 M⁻¹ s⁻¹ | 100% | 0.3 | 9.1 nM | 21.5 nM | 3.4 nM | 4 nM | Max Response relative to H3K1 (%) [10]: 100%; Kd [12]: 3.4 nM
3 | B3 | – | – | – | – | – | – | – | – | – | – | – | 2.1 nM | 5.8 nM | 1.2 nM | 3.9 nM | Kd [15]: 1.2 nM; fold decrease in ISRE-RG reporter assay with IFNβ, potency against H3K1 (IgG1) (IFNAR-1 on human cells [16]): 3 fold
